According to PMC11165477:

How the values were obtained:
[1] = biological target: Ma1α-neoGreen, expressed in Xenopus laevis oocytes (apple (Malus domestica)); assay: single-molecule photobleaching step counting (TIRF); competition: Ma1α-neoGreen in X. laevis oocytes co-injected with 25% or 50% of the total cRNA as untagged Ma1β
[2] = biological target: Ma1α-neoGreen, expressed in Xenopus laevis oocytes (apple (Malus domestica)); assay: single-molecule photobleaching step counting (TIRF); Ma1α-neoGreen alone in X. laevis oocytes, 16-24 h after cRNA injection, vitelline membrane removed, ND96 solution

| Substance | percent Ma1α-neoGreen dimer population (two bleaching steps) with 25% of the total cRNA as untagged Ma1β [1] | percent Ma1α-neoGreen dimer population (two bleaching steps) with 50% of the total cRNA as untagged Ma1β [1] | percent of fluorescent spots with two discrete bleaching steps [2] | stoichiometry N [2] |
| --- | --- | --- | --- | --- |
| Ma1β, untagged, expressed in Xenopus laevis oocytes (natural protein) | 38% | 30% | – | – |
| Ma1α-neoGreen, expressed in Xenopus laevis oocytes (natural protein) | – | – | 72% | 2 |
